This series has as its system E. coli MG1655. Description: Coexpression of decarbonylase and aldehyde-generating enzyme in E. coli, GC-MS of hydrocarbons. Particulars: for Production of Alkanes and Alkenes: alkane/alkene biosynthetic polypeptide coexpressed in E. coli with the aldehyde biosynthetic polypeptide of the same table row; for fatty aldehyde decarbonylase activity in E. coli: cotransformed with S. elongatus PCC7942_1594 into E. coli MG1655, M9 minimal media, 37° C. The class given is cell-based. An excerpt: Seven cyanobacteria, whose complete genome sequences are publicly available, were selected for verification and/or detection of alkane biosynthesis: Synechococcus elongatus PCC7942, Synechococcus elongatus PCC6301, Anabaena variabilis ATCC29413, Synechocystis sp. PCC6803, Nostoc punctiforme PCC73102, Gloeobacter violaceus ATCC 29082, and Prochlorococcus marinus CCMP1986. Only the first three cyanobacterial strains from this list had previously been reported to contain alkanes (Han et al., J. Am. Chem. Soc. 91:5156-5159 (1969); Fehler et al., Biochem. 9:418-422 (1970)). The strains were grown photoautotrophically in shake flasks in 100 mL of the appropriate media (listed in Table 8) for 3-7 days at 30° C. at a light intensity of approximately 3,500 lux. Cells were extracted for alkane detection as follows: cells from 1 mL culture volume were centrifuged for 1 min at 13,000 rpm, the cell pellets were resuspended in methanol, vortexed for 1 min and then sonicated for 30 min. After centrifugation for 3 min at 13,000 rpm, the supernatants were transferred to fresh vials and analyzed by GC-MS. The samples were analyzed on either 30 m DP-5 capillary column (0.25 mm internal diameter) or a 30 m high temperature DP-5 capillary column (0.25 mm internal diameter) using the following method.
After a 1 μL splitless injection (inlet temperature held at 300° C.) onto the GC/MS column, the oven was held at 100° C. for 3 mins. The temperature was ramped up to 320° C. at a rate of 20° C./min. The oven was held at 320° C. for an additional 5 min. The flow rate of the carrier gas helium was 1.3 mL/min. The MS quadrapole scanned from 50 to 550 m/z. Retention times and fragmentation patterns of product peaks were compared with authentic references to confirm peak identity.
The genomic DNA encoding Synechococcus elongatus PCC7942 orf1594 (YP_400611; putative aldehyde-generating enzyme) (SEQ ID NO:65) was amplified and cloned into the NcoI and EcoRI sites of vector OP-80 (pCL1920 derivative) under the control of the Ptrc promoter. The resulting construct (“OP80-PCC7942_1594”) was transformed into E. coli MG1655 and the cells were grown at 37° C. in M9 minimal media with 1% (w/v) glucose as carbon source and supplemented with 100 μg/mL spectinomycin. When the culture reached OD600 of 0.8-1.0, it was induced with 1 mM IPTG and cells were grown for an additional 18-20 h at 37° C. Cells from 0.5 mL of culture were extracted with 0.5 mL of ethyl acetate. After sonication for 60 min, the sample was centrifuged at 15,000 rpm for 5 min. The solvent layer was analyzed by GC-MS as described in Example 1.
The genomic DNA encoding Synechococcus elongatus PCC7942 orf1593 (YP_400610; putative decarbonylase) (SEQ ID NO:1) was amplified and cloned into the NdeI and XhoI sites of vector OP-183 (pACYC derivative) under the control of the Ptrc promoter. The resulting construct was cotransformed with OP80-PCC7942_1594 into E. coli MG1655 and the cells were grown at 37° C. in M9 minimal media supplemented with 100 μg/mL spectinomycin and 100 μg/mL carbenicillin. The cells were cultured and extracted as in Example 3 and analyzed by GC-MS as described in Example 1. […]

The values that follow come from patent US9481899B2, “Methods and compositions for producing hydrocarbons” (priority 2008, dated 2016).

Regarding “SEQ ID NO: 1: Synechococcus elongatus PCC7942 orf1593, putative decarbonylase”, the “Production of Alkanes and Alkenes” value is given as “yes”; the “fatty aldehyde decarbonylase activity in E. coli” value is “active fatty aldehyde decarbonylase”.

B1: SEQ ID NO: 29: Cyanothece sp. PCC7425 Cyan7425_0398, putative decarbonylase (protein, listed as Cyanothece sp.)
chain: MPQVQSPSAIDFYSETYQDAYSRIDAIVIEGEQEAHDNYLKLTELLPDCQEDLVRLAKMEARHKKGFEACGRNLKVTPDMEFAQQFFADLHNNFQKAAAANKIATCLVIQALIIECFAIAAYNIYIPVADDFARKITENVVKDEYTHLNFGEEWLKANFDSQREEVEAANRENLPIVWRMLNQVETDAHVLGMEKEALVESFMIQYGEALENIGFSTREIMRMSVYGLSAA
Take B1: the “Production of Alkanes and Alkenes” value is on record as “yes”; the “fatty aldehyde decarbonylase activity in E. coli” value was “active fatty aldehyde decarbonylase”.

B2: SEQ ID NO: 51: Prochlorococcus mariunus NATL2A PMN2A_1863, putative decarbonylase, codon optimized for E. coli (protein, listed as Prochlorococcus marinus)
chain: MQAFASNNLTVEKEELSSNSLPDFTSESYKDAYSRINAVVIEGEQEAYSNFLDLAKLIPEHADELVRLGKMEKKHMNGFCACGRNLAVKPDMPFAKTFFSKLHNNFLEAFKVGDTTTCLLIQCILIESFAISAYHVYIRVADPFAKRITEGVVQDEYLHLNYGQEWLKANLETVKKDLMRANKENLPLIKSMLDEVSNDAEVLHMDKEELMEEFMIAYQDSLLEIGLDNREIARMALAAVI
B2: the “Production of Alkanes and Alkenes” value was “yes”; the “fatty aldehyde decarbonylase activity in E. coli” value is recorded as “active fatty aldehyde decarbonylase”.

B3: SEQ ID NO: 31: Cyanothece sp. PCC7425 Cyan7425_2986, putative decarbonylase (protein, listed as Cyanothece sp.)
chain: MSDCATNPALDYYSETYRNAYRRVNGIVIEGEKQAYDNFIRLAELLPEYQAELTRLAKMEARHQKSFVACGQNLKVSPDLDFAAQFFAELHQIFASAANAGQVATCLVVQALIIECFAIAAYNTYLPVADEFARKVTASVVQDEYSHLNFGEVWLQNAFEQCKDEIITANRLALPLIWKMLNQVTGELRILGMDKASLVEDFSTRYGEALGQIGFKLSEILSLSVQGLQAVTP
In the case of B3, the “Production of Alkanes and Alkenes” value is given as “yes”; the “fatty aldehyde decarbonylase activity in E. coli” value was “active fatty aldehyde decarbonylase”.

B4: SEQ ID NO: 3: Synechocystis sp. PCC6803 sll0208, putative decarbonylase (protein, listed as Synechocystis sp.)
chain: MPELAVRTEFDYSSEIYKDAYSRINAIVIEGEQEAYSNYLQMAELLPEDKEELTRLAKMENRHKKGFQACGNNLQVNPDMPYAQEFFAGLHGNFQHAFSEGKVVTCLLIQALIIEAFAIAAYNIYIPVADDFARKITEGVVKDEYTHLNYGEEWLKANFATAKEELEQANKENLPLVWKMLNQVQGDAKVLGMEKEALVEDFMISYGEALSNIGFSTREIMRMSSYGLAGV
Take B4: the “Production of Alkanes and Alkenes” value is on record as “yes”.

B5: SEQ ID NO: 49: Prochlorococcus marinus MIT9313 PMT1231, putative decarbonylase, codon optimized for E. coli (protein, listed as Prochlorococcus marinus)
chain: MPTLEMPVAAVLDSTVGSSEALPDFTSDRYKDAYSRINAIVIEGEQEAHDNYIAIGTLLPDHVEELKRLAKMEMRHKKGFTACGKNLGVEADMDFAREFFAPLRDNFQTALGQGKTPTCLLIQALLIEAFAISAYHTYIPVSDPFARKITEGVVKDEYTHLNYGEAWLKANLESCREELLEANRENLPLIRRMLDQVAGDAAVLQMDKEDLIEDFLIAYQESLTEIGFNTREITRMAAAALVS
In the case of B5, the “Production of Alkanes and Alkenes” value is “yes”; the “fatty aldehyde decarbonylase activity in E. coli” value is “active fatty aldehyde decarbonylase”.

B6: SEQ ID NO: 13: Synechococcus sp. JA-3-3Ab CYA_0415, putative decarbonylase (protein, listed as Synechococcus sp.)
chain: MAPANVLPNTPPSPTDGGGTALDYSSPRYRQAYSRINGIVIEGEQEAHDNYLKLAEMLPEAAEELRKLAKMELRHMKGFQACGKNLQVEPDVEFARAFFAPLRDNFQSAAAAGDLVSCFVIQSLIIECFAIAAYNIYIPVADDFARKITEGVVKDEYLHLNFGERWLGEHFAEVKAQIEAANAQNLPLVRQMLQQVEADVEAIYMDREAIVEDFMIAYGEALASIGFNTREVMRLSAQGLRAA
Turning to B6, the “Production of Alkanes and Alkenes” value is on record as “yes”.

B7: SEQ ID NO: 11: Thermosynechococcus elongatus BP-1 tll1313, putative decarbonylase (protein, listed as Thermosynechococcus elongatus)
chain: MTTATATPVLDYHSDRYKDAYSRINAIVIEGEQEAHDNYIDLAKLLPQHQEELTRLAKMEARHKKGFEACGRNLSVTPDMEFAKAFFEKLRANFQRALAEGKTATCLLIQALIIESFAIAAYNIYIPMADPFARKITESVVKDEYSHLNFGEIWLKEHFESVKGELEEANRANLPLVWKMLNQVEADAKVLGMEKDALVEDFMIQYSGALENIGFTTREIMKMSVYGLTGA
Consider B7, for which the “Production of Alkanes and Alkenes” value is on record as “yes”; the “fatty aldehyde decarbonylase activity in E. coli” value was “active fatty aldehyde decarbonylase”.

B8: SEQ ID NO: 27: Cyanothece sp. ATCC51142 cce_0778, putative decarbonylase (protein, listed as Cyanothece sp.)
chain: MQELALRSELDFNSETYKDAYSRINAIVIEGEQEAYQNYLDMAQLLPEDEAELIRLSKMENRHKKGFQACGKNLNVTPDMDYAQQFFAELHGNFQKAKAEGKIVTCLLIQSLIIEAFAIAAYNIYIPVADPFARKITEGVVKDEYTHLNFGEVWLKEHFEASKAELEDANKENLPLVWQMLNQVEKDAEVLGMEKEALVEDFMISYGEALSNIGFSTREIMKMSAYGLRAA
On to B8, for which the “Production of Alkanes and Alkenes” value was “yes”; the “fatty aldehyde decarbonylase activity in E. coli” value was “active fatty aldehyde decarbonylase”.
